Laboratory results taken from the nanobody polyreactivity screen of Harvey et al. (2022).

Assay: yeast display, Sf9 membrane polyspecificity reagent, FACS + sequencing; frameworks hold sequencing errors
In short: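 Genes from sorted yeast were amplified by colony PCR, read by MiSeq 2 × 250 sequencing and filtered on CDR length. These cells carried a synthetic nanobody library in Saccharomyces cerevisiae BJ5465 and were sorted by FACS into low and high (top ~1%) gates on anti-HA and streptavidin fluorescence. Polyreactivity is labelled according to the gate of origin.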

Which “polyreactivity (PSR sort gate)” value does the source give for “QVQLVESGGGLVQAGGSLRLSCAASGRTFYYYAMGWYRPAPGKERELVAAISWSGGRTYYADSVKGRFTISRDNAKNTVYLQMNSLKPEDTAVYYCNAEPPRGYTVSSGGEMDYWGQGTQVTVSS” here?
Its value is “low polyreactivity”.

With “QVQLVESGGGLVQAGGSLRLSCAASGRTFYYYAMGWYRQAPGKEREFVAAISWSGVRTSYADSVKGRFTISRDNAKNTVNLQMNSLKPEDTAVYYCATKPNPQSRPRYDHWGQGTQVTVSS” as the sequence, how does the “polyreactivity (PSR sort gate)” value read?
The value was “high polyreactivity”.

With “QVQLVESGGGLVQAGGSLRLSCAASGRTFYYYAMGWYRQAPGKEREFVASITWRGGRTYYADSVKGRFTISRDNAKNTVYLQMNSLKPEDTAVYYCAADGSYAIGGYGYWGQGTQVTVSS” as the sequence, how does the “polyreactivity (PSR sort gate)” value read?
Its value is “high polyreactivity”.

For “QVQLVESGGGLVQAGGSLRLSCAASGRTFYYYAMGWYRQAPGKEREFVASITWRGGRTYYADSVKGRFTISRDNAKNTVYLQMNSLKPEDTAVYYCAAESYHPEYYYWGQGTQVTVSS”, which “polyreactivity (PSR sort gate)” value is on record?
The value was “high polyreactivity”.

Which “polyreactivity (PSR sort gate)” value does the source give for “QVQLVESGGGLVQAGGSLRLSCAASGRTFYYYAMGWYRQAPGKERELVAAINTRGTSTYYADSVKGRFTISRDNAKNTVYLQMNSLKPEDTAVYYCAVDPYGDSWEDWFRNYYYGYDYWGQGTQVTVSS” here?
Its value is “low polyreactivity”.

Which “polyreactivity (PSR sort gate)” value does the source give for “QVQLVESGGGLVQAGGSLRLSCAASGRTFYYYTMGWYRQAPGKERELVAAITWNGGSTYYADSVKGRFTISRDNAKNTVYLQMNSLKPEDTAVYYCNARWTWRYDYWGQGTQVTVSS” here?
Its value is “high polyreactivity”.

With “QVQLVESGGGLVQAGGSLRLSCAASGRTGVNAIGWYRQAPGKERELVAAINNGDSTYYADSVKGRFTISRDNAKNTVYLQMNSLKPEDTAVYYCAAGLDEGDYWQESDYWGQGTQVTVSS” as the sequence, how does the “polyreactivity (PSR sort gate)” value read?
Its value is “low polyreactivity”.

Which “polyreactivity (PSR sort gate)” value does the source give for “QVQLVESGGGLVQAGGSLRLSCAASGRTIDPNAMGWYRQAPGKERELVAAISRTGVRTYYADSVMGRFTISRDNAKNTVYLQMNSLKPEDTAVYYCNRYGARSNDYWGQGTQVPVSS” here?
Its value is “low polyreactivity”.

For “QVQLVESGGGLVQAGGSLRLSCAASGRTIDSYAMGWYRQAPGKERELVAAISKSGGRTYYADSVKGRFTISRDNAKNTVYLQMNSLKPEDTAVYYCNAQRVAYWRVAYDYWGQGTQVTVSS”, which “polyreactivity (PSR sort gate)” value is on record?
Its value is “high polyreactivity”.

Which “polyreactivity (PSR sort gate)” value does the source give for “QVQLVESGGGLVQAGGSLRLSCAASGRTIGGYAMGWYRQAPGKERELVATITRGGRTYYADSVKGRFTISRDNAKNTVYLQMNSLKPEDTAVYYCAARYGQSRSVYNLYRFDYWGQGTQVTVSS” here?
The value was “high polyreactivity”.

With “QVQLVESGGGLVQAGGSLRLSCAASGRTIGQNAMGWYRQAPGKERELVAAISASGSNTYYADSVKGRFTISRDNAKNTVYLQMNSLKPEDTAVYYCAKQVYRPGQQSRYDYWGQGTQVTVSS” as the sequence, how does the “polyreactivity (PSR sort gate)” value read?
The value was “low polyreactivity”.

Which “polyreactivity (PSR sort gate)” value does the source give for “QVQLVESGGGLVQAGGSLRLSCAASGRTIGVYAMGWYRQAPGKERELVAAISWSGGTTYYADSVKGRFTISRDNAKYTVYLQMNSLKPEDTAVYYCAADSYTEVDYWGQGTQVTVSS” here?
Its value is “low polyreactivity”.

Which “polyreactivity (PSR sort gate)” value does the source give for “QVQLVESGGGLVQAGGSLRLSCAASGRTIIYNTMGWYRQAPGKEREFVAAINWSGGSTYYADSAKGRFTISRDNAKNTVYLQMNSLKPEDTAVYYCNAEAGYYRALIYDYWGQGTQVTVSS” here?
The value was “low polyreactivity”.

With “QVQLVESGGGLVQAGGSLRLSCAASGRTIKYYAMGWYRQAPGKERQLVAVISWSGGRTYYADSVKGRFTISRDNAKNTVYLQMNSLKPEDTAVYYCNAVYPYYYLLKRYKEGYWGLGTQVTVSS” as the sequence, how does the “polyreactivity (PSR sort gate)” value read?
Its value is “high polyreactivity”.

For “QVQLVESGGGLVQAGGSLRLSCAASGRTIPTYVMGWYRQAPGKERELVASIRSGGRTKYADSVKGRFTISRDNAKNTVYLQMNSLKPEDTAVYYCAADRRAYYYSFDYWGQGTQVTVSS”, which “polyreactivity (PSR sort gate)” value is on record?
The value was “low polyreactivity”.

For “QVQLVESGGGLVQAGGSLRLSCAASGRTIPWNVMGWYRQAPGKERELVATITSRRTSTNYADSVKGRFTISRDNAKNTVYLQMNSLKPEDTAVYYCARRTVWGAGHYYYWGQGTQVTVSS”, which “polyreactivity (PSR sort gate)” value is on record?
The value was “high polyreactivity”.

With “QVQLVESGGGLVQAGGSLRLSCAASGRTIPYKSMGWYRQAPGKERELVAAITSGGTTNYADSVKGRFTISRDNAKNTVYLQMNSLKPVDTAVYYCAADSDASSQFRRDYWGQGTQVNVSS” as the sequence, how does the “polyreactivity (PSR sort gate)” value read?
The value was “low polyreactivity”.

For “QVQLVESGGGLVQAGGSLRLSCAASGRTIQTYTMGWYRQAPGKERELDAVITTRGGRTYYADSVKGRFTISRDNAKNTVYLQMNSLKPEDTAVYYCNKGIPTRSVRSYDYWGQGTQVTVSS”, which “polyreactivity (PSR sort gate)” value is on record?
The value was “high polyreactivity”.

For “QVQLVESGGGLVQAGGSLRLSCAASGRTIQTYVMGWYRQAPGKERELVASIRSGGRTKYADSVKGRFTISRDNAKNTVYLQMNSLKPEDTAVYYCAADRRAYYYSFDYWGQGTQVTVSS”, which “polyreactivity (PSR sort gate)” value is on record?
Its value is “low polyreactivity”.

For “QVQLVESGGGLVQAGGSLRLSCAASGRTISVYGMGWYRQAPGKERELVASIPWRGGTTYYADSVKGRFTISRDNAKNTVYLQMNSLKPEDTAVYYCAIEPFRFRYYYWGQGTQVTVSS”, which “polyreactivity (PSR sort gate)” value is on record?
Its value is “high polyreactivity”.

With “QVQLVESGGGLVQAGGSLRLSCAASGRTISYYAMVWYRPAPGKERELVAAISSSGGSTYYADSVKGRFTISRDNAKNTFYLQMNSLKPEDTAVYYCAAYQRGNRYDYWGQGTQVTVSS” as the sequence, how does the “polyreactivity (PSR sort gate)” value read?
Its value is “high polyreactivity”.

For “QVQLVESGGGLVQAGGSLRLSCAASGRTITAYTMVWYRQAPVKEREMVASISSGVTYADSVKGRFTISRDNAKNTVYLQMNRLKPEDTAVYYCAARLWYVQGYVPYVHHRFDYWGQGTQVTVSS”, which “polyreactivity (PSR sort gate)” value is on record?
The value was “low polyreactivity”.

Which “polyreactivity (PSR sort gate)” value does the source give for “QVQLVESGGGLVQAGGSLRLSCAASGRTITFNTMGWYRQAPGKERELVAGIDRGGSTNYADSVKGRFTISRDNAKNTVYLQMNSLKPEDTAVYYCAKRWTGLGGYYYWGQGTQVTVSS” here?
Its value is “high polyreactivity”.

For “QVQLVESGGGLVQAGGSLRLSCAASGRTITFYTMGWYRQAPVKERELVARITGGGSTFYADSVKGRFTISRDNAKNTVYLLMNSLKPEDTAVYYCAREYASAFWYPMYYWGQGTQVNVSS”, which “polyreactivity (PSR sort gate)” value is on record?
The value was “low polyreactivity”.

Which “polyreactivity (PSR sort gate)” value does the source give for “QVQLVESGGGLVQAGGSLRLSCAASGRTIVWYAMGWYRQAPGKERELVAAISKRGGSTYYADSVKGRFTISRDNAKNTVYLQMNSLKPEDTAVYYCAAEVYYGSSYGYWGQGTQVTVSS” here?
The value was “high polyreactivity”.

For “QVQLVESGGGLVQAGGSLRLSCAASGRTIWYYAMGWYRQAPGKERELVAAITNRGGSTSYADSVKVRFTISRDNVKNTVYLQMNSLKPEDTAVYYCAKENYYGGGFDYWGQGTQVTVSS”, which “polyreactivity (PSR sort gate)” value is on record?
The value was “high polyreactivity”.

With “QVQLVESGGGLVQAGGSLRLSCAASGRTIYQYAMGGYRQATGKARELDAAISRGGSTNFADSLKGRFTISRDNAKNTVYLQMNSLKPEDTAVYYCASWYKFLSLKRLYERDYWGQGTQVTVSS” as the sequence, how does the “polyreactivity (PSR sort gate)” value read?
The value was “high polyreactivity”.

For “QVQLVESGGGLVQAGGSLRLSCAASGRTIYQYAMGWYRQAPGKERELVAAITDNGGRTYYADSVKGRFTISCDNAKNTVYLQMNSLKPEDTAVYYCAAEIWTYSYYVVDNGPYDYWGQGTQVTVSS”, which “polyreactivity (PSR sort gate)” value is on record?
The value was “low polyreactivity”.

Which “polyreactivity (PSR sort gate)” value does the source give for “QVQLVESGGGLVQAGGSLRLSCAASGRTIYYYAMGGYRQAPGKEREFVAAISWHGGSTYYADSVKGRFTISRDNAKNTVYLQMNSLKPEDTAVYYCAAERYDRVGFDYWGQGTQVTVSS” here?
The value was “low polyreactivity”.

Which “polyreactivity (PSR sort gate)” value does the source give for “QVQLVESGGGLVQAGGSLRLSCAASGRTLAFNAMGWYRQAPGKERELVAVIRNGTSTNYADSVKGRFTISRDNAKNTVYLQMNSLKPEDTAVYYCNVPYYLPSYLSGYDYWGQGTQVTVSS” here?
The value was “low polyreactivity”.

With “QVQLVESGGGLVQAGGSLRLSCAASGRTLAPYAMGWYRQAPGKERELVAISTIGGSTYYADSVKGRFTISRDNAKNTVYLQMNSLKPEETAVYYGAADGNSTGVYLAGGEGFAYDYWGQVTQVTVSS” as the sequence, how does the “polyreactivity (PSR sort gate)” value read?
The value was “low polyreactivity”.
